Reference: patent publication US20230106083A1, “SILICON-FLUORIDE HETEROAROMATIC SYSTEMS FOR APPLICATIONS IN POSITRON EMISSION TOMOGRAPHY (PET) MOLECULAR IMAGING” (The Regents of the University of California, priority 2019, published 2023)
Read-outs that look alike come from different tables or passages of the source.

Experiments:
[1] = MicroPET/CT biodistribution of [^18F]-17 in normal mice (ROI quantification); format: in vivo, C57BL6 mice; conditions: for tissue uptake at 1 h / tissue uptake at 2 h: C57BL/6, mouse; for tissue uptake at 2 h: 2 h post-injection
Method: Micropositron emission tomography-computed tomography (microPET/CT) imaging studies were performed in normal mice to investigate the in vivo stability of the silicon-fluorine bond in the Heteroaromatic silicon fluoride acceptor peptide conjugate, [^18F]-17. Reformulated [^18F]-17 (2.2 MBq) was injected via the tail vein into C57BL/6 mice (n=3), and microPET/CT scans were acquired. […] Alternatively, the GI activity may also be a result of this particular peptide, for which the full cholecystokinin construct plays important roles in stimulating digestion within the GI system.
Animal studies were approved by the UCLA Animal Research Committee and carried out according to the guidelines of the Department of Laboratory Animal Medicine at UCLA. Female C57BL6 mice were injected intravenously via tail vein with approximately 2.2 MBq (60 μCi) of [^18F]-17. Animals were kept warm on heating pads throughout the imaging procedures. At 1 and 2 h after tracer injection, mice were anesthetized with 2% isoflurane in oxygen and placed in dedicated Genisys8 imaging chambers for PET/CT imaging on the Genisys8 PET/CT (Sofie Biosciences). PET scans were acquired for 10 min with an energy window of 150-650 keV reconstructed using ML-EM, followed by CT acquisition. All PET images were corrected for CTbased photon attenuation, detector normalization and radioisotope decay (scatter correction was not applied) and converted to units of percent injected dose per gram (% ID/g). Images were analyzed by drawing regions-of-interest (ROI) in select tissues using AMIDE v1.0.5. See e.g. Loening et al., Mol. Imaging 2003, 3, 131.

[2] = Stability screen of HetSiFA [^18F]-12 in acetonitrile (RCC by radio-TLC over time); format: physicochemical; conditions: room temperature, 1.8 mg (9.4 μmol) Et4NHCO3 used for elution
Method: Isotopic exchange reactions were conducted in 1 mL Eppendorf tube containing hetroarylfluorosilanes 1 in dry acetonitrile (3 mM stock solution, 50 μL). […] An aliquot of the crude reaction mixture was spotted on a silica gel coated TLC plate, developed in a glass chamber using [^18F]fluoride Het Si tBu tBu F Het Si tBu tBu ^18F Et4NHCO3 CH3CN, 23° C. 1 [^18F]-1 S15 acetonitrile (100%) or acetonitrile:water (95:5) as the eluent and analyzed by radio-TLC using a miniGITA*TLC scanner. The radiochemical conversion (RCC) was calculated by dividing the integrated area of the ^18F-fluorinated product peak by the total integrated area of all peaks on the TLC and multiplying by 100 to convert to percentage units. Isotopic exchange and purity was confirmed by analytical HPLC by co-injecting with the 19F-reference standard (UV absorbance at 254 nm). An aliquot of the crude reaction mixture (10 μL) was added to the 19F-reference standard (1 mg/mL) in acetonitrile (10 μL) and the sample was injected into the analytical HPLC.
[^18F]TEAF was obtained by eluting fluoride ion with high base or low base, following the protocol described above.

Q: With `CSCC[C@H](NC(=O)[C@H](Cc1c[nH]c2ccccc12)NC(=O)CN1CCN(CC(=O)O)CCN(CC(=O)O)CCN(CC(=O)O)CC1)C(=O)N[C@@H](CC(=O)NCCOCCOCCOCCNC(=O)c1cccc2cc([Si](F)(C(C)(C)C)C(C)(C)C)sc12)C(=O)N[C@@H](Cc1ccccc1)C(N)=O` [[^18F]-17] as the compound, how does the “Biodistribution, Muscle” value ([1]; PET quantification, 1 h post-injection, i.v. tail vein, C57BL6 mice) read?
A: 0.36 % ID/g

Q: What about the tissue uptake at 1 h ([1]; female, GI tract, iv, 2.2 MBq, total radioactivity, PET quantification, 1 h post-injection, i.v. tail vein, C57BL6 mice, read-out: Biodistribution, GI) of the same compound?
A: 107 ± 24 %ID/g

Q: And the tissue uptake at 2 h ([1]; female, GI tract, iv, 2.2 MBq, total radioactivity, PET quantification, i.v. tail vein, C57BL6 mice, read-out: Biodistribution, GI)?
A: 122 ± 48 %ID/g

Q: And the tissue uptake at 1 h ([1]; female, bladder, iv, 2.2 MBq, total radioactivity, PET quantification, 1 h post-injection, i.v. tail vein, C57BL6 mice, read-out: Biodistribution, Bladder)?
A: 35 ± 12 %ID/g

Q: What about the tissue uptake at 2 h ([1]; female, bladder, iv, 2.2 MBq, total radioactivity, PET quantification, i.v. tail vein, C57BL6 mice, read-out: Biodistribution, Bladder) of the same compound?
A: 30 ± 7 %ID/g

Q: What about the tissue uptake at 1 h ([1]; female, bone (knee), iv, 2.2 MBq, total radioactivity, PET quantification, 1 h post-injection, i.v. tail vein, C57BL6 mice, read-out: Biodistribution, Bone (knee)) of the same compound?
A: 8 ± 0.65 %ID/g

Q: What about the tissue uptake at 2 h ([1]; female, bone (knee), iv, 2.2 MBq, total radioactivity, PET quantification, i.v. tail vein, C57BL6 mice, read-out: Biodistribution, Bone (knee)) of the same compound?
A: 8.2 ± 0.56 %ID/g

Q: What about the tissue uptake at 1 h ([1]; female, brain, iv, 2.2 MBq, total radioactivity, PET quantification, 1 h post-injection, i.v. tail vein, C57BL6 mice, read-out: Biodistribution, Brain) of the same compound?
A: 0.44 ± 0.06 %ID/g

Q: What about the tissue uptake at 2 h ([1]; female, brain, iv, 2.2 MBq, total radioactivity, PET quantification, i.v. tail vein, C57BL6 mice, read-out: Biodistribution, Brain) of the same compound?
A: 0.33 ± 0.03 %ID/g

Q: And the tissue uptake at 1 h ([1]; female, gallbladder, iv, 2.2 MBq, total radioactivity, PET quantification, 1 h post-injection, i.v. tail vein, C57BL6 mice, read-out: Biodistribution, Gallbladder)?
A: 33 ± 14 %ID/g

Q: And the tissue uptake at 2 h ([1]; female, gallbladder, iv, 2.2 MBq, total radioactivity, PET quantification, i.v. tail vein, C57BL6 mice, read-out: Biodistribution, Gallbladder)?
A: 28 ± 9 %ID/g

Q: And the tissue uptake at 1 h ([1]; female, heart, iv, 2.2 MBq, total radioactivity, PET quantification, 1 h post-injection, i.v. tail vein, C57BL6 mice, read-out: Biodistribution, Heart)?
A: 2 ± 0.25 %ID/g

Q: What about the tissue uptake at 2 h ([1]; female, heart, iv, 2.2 MBq, total radioactivity, PET quantification, i.v. tail vein, C57BL6 mice, read-out: Biodistribution, Heart) of the same compound?
A: 1.2 ± 0.26 %ID/g

Q: And the tissue uptake at 1 h ([1]; female, kidney, iv, 2.2 MBq, total radioactivity, PET quantification, 1 h post-injection, i.v. tail vein, C57BL6 mice, read-out: Biodistribution, Kidney)?
A: 2.9 ± 0.62 %ID/g

Q: And the tissue uptake at 2 h ([1]; female, kidney, iv, 2.2 MBq, total radioactivity, PET quantification, i.v. tail vein, C57BL6 mice, read-out: Biodistribution, Kidney)?
A: 2.2 ± 0.38 %ID/g

Q: And the tissue uptake at 1 h ([1]; female, liver, iv, 2.2 MBq, total radioactivity, PET quantification, 1 h post-injection, i.v. tail vein, C57BL6 mice, read-out: Biodistribution, Liver)?
A: 5 ± 0.07 %ID/g

Q: What about the tissue uptake at 2 h ([1]; female, liver, iv, 2.2 MBq, total radioactivity, PET quantification, i.v. tail vein, C57BL6 mice, read-out: Biodistribution, Liver) of the same compound?
A: 2.4 ± 0.47 %ID/g

Q: And the tissue uptake at 1 h ([1]; female, muscle, iv, 2.2 MBq, total radioactivity, PET quantification, 1 h post-injection, i.v. tail vein, C57BL6 mice, read-out: Biodistribution, Muscle)?
A: 0.36 ± 0.06 %ID/g

Q: And the tissue uptake at 2 h ([1]; female, muscle, iv, 2.2 MBq, total radioactivity, PET quantification, i.v. tail vein, C57BL6 mice, read-out: Biodistribution, Muscle)?
A: 0.27 ± 0.11 %ID/g

Q: And the tissue uptake ([1]; female, mouse, bone, iv, 2.2 MBq, total radioactivity, FIG. 6, time not given, C57BL/6 mice)?
A: 8 %ID/g

Q: And the clearance route ([1]; microPET/CT images, C57BL/6 mice, 2.2 MBq via tail vein)?
A: initial clearance of [^18F]-17 via the kidneys, followed by the reabsorption of radiometabolites and the subsequent hepatobiliary clearance

Q: What about the plasma clearance ([1]; microPET/CT, C57BL/6 mice, 2.2 MBq via tail vein) of the same compound?
A: rapid plasma clearance

Q: For `CC(C)(C)[Si](F)(c1cc2cccc(C(=O)O)c2s1)C(C)(C)C` [[^18F]-12, 2-(di-tertbutylfluorosilyl) benzo[b]thiophene-7-carboxylic acid], which “RCC (stability screen)” value ([2]; 2 min) is on record?
A: 95%

Q: What about the “RCC (stability screen)” value ([2]; 5 min) of the same compound?
A: 96%

Q: And the “RCC (stability screen)” value ([2]; 15 min)?
A: 97%

Q: And the “RCC (stability screen)” value ([2]; 30 min)?
A: 97%

Q: What about the “RCC (stability screen)” value ([2]; 60 min) of the same compound?
A: 97%
